Experimental findings from the supplement of paper PMC9112550, “Optimization of the antimicrobial peptide Bac7 by deep mutational scanning” (BMC Biology, 2022) are described below.
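Further: peptides expressed intracellularly from a pBAD plasmid library in pooled LB shake-flask culture, induced with 0.3% L-arabinose, DNA abundance read by NGS, three biological replicates, DESeq2 with apeglm shrinkage.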

This data set deals with Escherichia coli TOP10. Briefly: shrunken log2 fold change of peptide-encoding DNA abundance (4.5 h post-induction vs induction); higher = less antimicrobial activity (less host growth inhibition). The following applies: time post-induction: 4.5 h; library: site-saturation at positions 5, 18, 19, 20.
Turning to RRIRHRPPRLPRPRPRPSNWPRP, the “shrunken log2 fold change” value is -0.106. With RRIRQRPPRLPRPRPRPPMIPRP, the “shrunken log2 fold change” value is 0.0721. Under RRIRARPPRLPRPRPRPFEKPRP stands -0.122; under RRIRQRPPRLPRPRPRPHCCPRP, -0.0421.

In the case of RRIRHRPPRLPRPRPRPHDPPRP, the “shrunken log2 fold change” value was -0.613.

For RRIRDRPPRLPRPRPRPPGEPRP, the “shrunken log2 fold change” value was -0.0136.

For RRIRHRPPRLPRPRPRPQKEPRP, the “shrunken log2 fold change” value was -0.03. Under RRIRYRPPRLPRPRPRPINWPRP stands -0.446; under RRIRDRPPRLPRPRPRPFCDPRP, 0.167; under RRIRYRPPRLPRPRPRPTHDPRP, 0.032.

In the case of RRIRARPPRLPRPRPRPCQKPRP, the “shrunken log2 fold change” value was 0.431.

As for RRIRMRPPRLPRPRPRPNVLPRP, the “shrunken log2 fold change” value worked out at 0.359. Regarding RRIRERPPRLPRPRPRPLNKPRP, the “shrunken log2 fold change” value is -0.47. The value for RRIRDRPPRLPRPRPRPGSCPRP was 0.127; that for RRIRPRPPRLPRPRPRPQCPPRP was -0.172. Under RRIRKRPPRLPRPRPRPCWLPRP stands 0.246. For RRIRTRPPRLPRPRPRPIFWPRP, the “shrunken log2 fold change” value worked out at 0.85. Under RRIRYRPPRLPRPRPRPVMPPRP stands 0.047; under RRIRCRPPRLPRPRPRPWICPRP, -1; under RRIRIRPPRLPRPRPRPVSAPRP, 0.0887. With RRIRFRPPRLPRPRPRPNPWPRP, the “shrunken log2 fold change” value is -0.0447. On to RRIRWRPPRLPRPRPRPIMGPRP, for which the “shrunken log2 fold change” value was 0.0656. The value for RRIRMRPPRLPRPRPRPSDFPRP was -0.764. Regarding RRIRHRPPRLPRPRPRPMGPPRP, the “shrunken log2 fold change” value came out at 0.0818. Under RRIRGRPPRLPRPRPRPEKIPRP stands 0.672; under RRIRERPPRLPRPRPRPKYTPRP, -0.297; under RRIRNRPPRLPRPRPRPRMPPRP, -0.0444.

Consider RRIRARPPRLPRPRPRPFRGPRP, for which the “shrunken log2 fold change” value was -0.0013.

As for RRIRHRPPRLPRPRPRPLQYPRP, the “shrunken log2 fold change” value was -0.582. For the sequence RRIRRRPPRLPRPRPRPVIMPRP, the “shrunken log2 fold change” value was 0.189. The value for RRIRLRPPRLPRPRPRPIEAPRP was -0.00911; that for RRIRMRPPRLPRPRPRPSSGPRP was 0.0493.

Regarding RRIRIRPPRLPRPRPRPWDNPRP, the “shrunken log2 fold change” value is -0.339. For the sequence RRIRNRPPRLPRPRPRPNCEPRP, the “shrunken log2 fold change” value was -0.185. As to RRIRWRPPRLPRPRPRPSDVPRP, the “shrunken log2 fold change” value was -0.545. Under RRIRDRPPRLPRPRPRPHWIPRP stands -0.693; under RRIRFRPPRLPRPRPRPLDNPRP, 0.0244; under RRIRMRPPRLPRPRPRPSAMPRP, 1.44.

With RRIRWRPPRLPRPRPRPKGDPRP, the “shrunken log2 fold change” value came out at 0.0616.

On to RRIRRRPPRLPRPRPRPCDIPRP, for which the “shrunken log2 fold change” value turned out to be 0.181.

In the case of RRIRVRPPRLPRPRPRPWVAPRP, the “shrunken log2 fold change” value is -0.00183. Under RRIRLRPPRLPRPRPRPGAPPRP stands 0.672; under RRIRCRPPRLPRPRPRPIEYPRP, -0.148.

Consider RRIRKRPPRLPRPRPRPHAVPRP, for which the “shrunken log2 fold change” value was found to be 0.132. For the sequence RRIRFRPPRLPRPRPRPNDAPRP, the “shrunken log2 fold change” value was determined as 0.186. For the sequence RRIRPRPPRLPRPRPRPFDGPRP, the “shrunken log2 fold change” value is -0.214.

In the case of RRIRMRPPRLPRPRPRPNVQPRP, the “shrunken log2 fold change” value was -0.166. The value for RRIRMRPPRLPRPRPRPIVYPRP was 0.00317. Under RRIRARPPRLPRPRPRPIRRPRP stands 0.24; under RRIRIRPPRLPRPRPRPRQVPRP, 0.0368; under RRIRVRPPRLPRPRPRPCLEPRP, 0.0452. The value for RRIRYRPPRLPRPRPRPKHIPRP was -0.66; that for RRIRPRPPRLPRPRPRPFVKPRP was -0.133; that for RRIRIRPPRLPRPRPRPKKQPRP was -0.194.

As for RRIRDRPPRLPRPRPRPSMHPRP, the “shrunken log2 fold change” value was -0.176. Under RRIRDRPPRLPRPRPRPTPPPRP stands 0.49.

For RRIRHRPPRLPRPRPRPWTDPRP, the “shrunken log2 fold change” value was -0.0171. Turning to RRIRGRPPRLPRPRPRPWYWPRP, the “shrunken log2 fold change” value was 0.187. As to RRIRERPPRLPRPRPRPYFLPRP, the “shrunken log2 fold change” value is -0.437. Consider RRIRARPPRLPRPRPRPQEPPRP, for which the “shrunken log2 fold change” value stood at 0.744. Under RRIRTRPPRLPRPRPRPTMYPRP stands -0.82; under RRIRKRPPRLPRPRPRPIAKPRP, 0.141; under RRIRNRPPRLPRPRPRPENPPRP, 0.0192. Under RRIRERPPRLPRPRPRPCRNPRP stands -0.269.

Regarding RRIRQRPPRLPRPRPRPFNFPRP, the “shrunken log2 fold change” value was -0.16. Under RRIRCRPPRLPRPRPRPNGKPRP stands -0.8. Under RRIRTRPPRLPRPRPRPYTPPRP stands -0.34; under RRIRCRPPRLPRPRPRPCTVPRP, -0.419; under RRIRFRPPRLPRPRPRPKIYPRP, -0.328. Under RRIRKRPPRLPRPRPRPEWTPRP stands 0.0364. On to RRIRFRPPRLPRPRPRPPCTPRP, for which the “shrunken log2 fold change” value was -0.228.

As for RRIRVRPPRLPRPRPRPEEFPRP, the “shrunken log2 fold change” value was -0.034.

As for RRIRQRPPRLPRPRPRPCGEPRP, the “shrunken log2 fold change” value is -0.0396. For the sequence RRIRSRPPRLPRPRPRPTSNPRP, the “shrunken log2 fold change” value was determined as 0.133. Under RRIRIRPPRLPRPRPRPCRDPRP stands -0.132; under RRIRGRPPRLPRPRPRPTWGPRP, 0.469. For RRIRGRPPRLPRPRPRPKHCPRP, the “shrunken log2 fold change” value worked out at 0.216. Under RRIRYRPPRLPRPRPRPLCKPRP stands -0.588. The value for RRIRKRPPRLPRPRPRPYLEPRP was 0.0252. Take RRIRERPPRLPRPRPRPNAWPRP: the “shrunken log2 fold change” value worked out at 0.113. Under RRIRDRPPRLPRPRPRPPTFPRP stands -0.158; under RRIRLRPPRLPRPRPRPKDTPRP, 0.0949; under RRIRKRPPRLPRPRPRPQFKPRP, -0.037. Under RRIRRRPPRLPRPRPRPAPGPRP stands 0.812. Under RRIRNRPPRLPRPRPRPIESPRP stands -0.00107. On to RRIRKRPPRLPRPRPRPRMGPRP, for which the “shrunken log2 fold change” value is 0.149. The value for RRIRKRPPRLPRPRPRPGFGPRP was 1.35; that for RRIRERPPRLPRPRPRPVKSPRP was -0.155; that for RRIRMRPPRLPRPRPRPGSAPRP was 1.4. The value for RRIRKRPPRLPRPRPRPQNNPRP was -0.417. Under RRIRLRPPRLPRPRPRPWTIPRP stands -0.0385; under RRIRQRPPRLPRPRPRPASYPRP, -0.121; under RRIRIRPPRLPRPRPRPFAKPRP, -0.295.

For the sequence RRIRIRPPRLPRPRPRPPTMPRP, the “shrunken log2 fold change” value was -0.0339. RRIRPRPPRLPRPRPRPTWEPRP: the “shrunken log2 fold change” value is 0.659. Regarding RRIRWRPPRLPRPRPRPKNWPRP, the “shrunken log2 fold change” value came to 0.188. For RRIRTRPPRLPRPRPRPCPLPRP, the “shrunken log2 fold change” value was -0.325.

Consider RRIRSRPPRLPRPRPRPMGVPRP, for which the “shrunken log2 fold change” value was -0.084. For the sequence RRIRSRPPRLPRPRPRPPCQPRP, the “shrunken log2 fold change” value is -0.0943. The value for RRIRQRPPRLPRPRPRPVHGPRP was -0.0392.

For the sequence RRIRIRPPRLPRPRPRPPIGPRP, the “shrunken log2 fold change” value was -0.0282. As for RRIRGRPPRLPRPRPRPYTIPRP, the “shrunken log2 fold change” value was found to be 0.187. As to RRIRMRPPRLPRPRPRPLSQPRP, the “shrunken log2 fold change” value turned out to be 0.0295. As for RRIRIRPPRLPRPRPRPDPLPRP, the “shrunken log2 fold change” value is -0.326. As for RRIRPRPPRLPRPRPRPIDDPRP, the “shrunken log2 fold change” value is 0.00554. For the sequence RRIRKRPPRLPRPRPRPDGIPRP, the “shrunken log2 fold change” value came out at 0.00242.

With RRIRARPPRLPRPRPRPVFIPRP, the “shrunken log2 fold change” value is -0.201. With RRIRMRPPRLPRPRPRPIHNPRP, the “shrunken log2 fold change” value is -0.58. Under RRIRQRPPRLPRPRPRPQRIPRP stands -0.226; under RRIRHRPPRLPRPRPRPLMEPRP, -0.348; under RRIRRRPPRLPRPRPRPYITPRP, -0.523. The value for RRIRVRPPRLPRPRPRPVCPPRP was 0.0825.

As for RRIRDRPPRLPRPRPRPILFPRP, the “shrunken log2 fold change” value was -0.185. Under RRIRYRPPRLPRPRPRPDSQPRP stands -0.429.

On to RRIRTRPPRLPRPRPRPSKKPRP, for which the “shrunken log2 fold change” value is -0.174. As to RRIRKRPPRLPRPRPRPIEEPRP, the “shrunken log2 fold change” value was determined as 0.566. The value for RRIRIRPPRLPRPRPRPDKVPRP was -0.043; that for RRIRCRPPRLPRPRPRPNRAPRP was 0.00805.

For RRIRMRPPRLPRPRPRPDWLPRP, the “shrunken log2 fold change” value is -0.0671. The value for RRIRQRPPRLPRPRPRPMKSPRP was 0.0232. Under RRIRWRPPRLPRPRPRPCLIPRP stands -0.151.

In the case of RRIRKRPPRLPRPRPRPDDWPRP, the “shrunken log2 fold change” value turned out to be 1.73. Under RRIRVRPPRLPRPRPRPPNEPRP stands 0.345; under RRIRHRPPRLPRPRPRPQPKPRP, 0.24.

With RRIRWRPPRLPRPRPRPGKPPRP, the “shrunken log2 fold change” value turned out to be 0.066.
